Positions count from the first letter of the chain named. In names and notes the source's numbering stands.
B1: D-dopachrome tautomerase (D-DT or MIF-2), wild type (natural protein, human, UniProt P30046 1-118, looked up)
chain: MPFLELDTNLPANRVPAGLEKRLCAAAASILGKPADRVNVTVRPGLAMALSGSTEPCAQLSISSIGVVGTAEDNRSHSAHFFEFLTKELALGQDRILIRFFPLESWQIGKIGTVMTFL
B2: MIF-2 C56S variant (natural protein, human, UniProt P30046 1-118, looked up)
chain: B1 chain with C57S
B3: WT MIF-2 bound to Ebselen (Cys23 covalently modified) (natural protein, human, UniProt P30046 1-118, looked up)
chain: B1 chain
modifications: Cys23 covalently modified by Ebselen
B4: C56S MIF-2 bound to Ebselen (Cys23 covalently modified) (natural protein, human, UniProt P30046 1-118, looked up)
chain: B1 chain with C57S
modifications: Cys23 covalently modified by Ebselen

Biological target: the molecule itself
Test: NMR spin relaxation

Stoichiometry N, 3:
B1
B2
B3
B4
